Where “and” joins values, the source holds several entries; their conditions need not be identical. Identical values can stand only once.
B1: Dihydrolipoyllysine-residue succinyltransferase component of 2-oxoglutarate dehydrogenase complex, P0AFG6 (parent)
chain: MSSVDILVPDLPESVADATVATWHKKPGDAVVRDEVLVEIETDKVVLEVPASADGILDAVLEDEGTTVTSRQILGRLREGNSAGKETSAKSEEKASTPAQRQQASLEEQNNDALSPAIRRLLAEHNLDASAIKGTGVGGRLTREDVEKHLAKAPAKESAPAAAAPAAQPALAARSEKRVPMTRLRKRVAERLLEAKNSTAMLTTFNEVNMKPIMDLRKQYGEAFEKRHGIRLGFMSFYVKAVVEALKRYPEVNASIDGDDVVYHNYFDVSMAVSTPRGLVTPVLRDVDTLGMADIEKKIKELAVKGRDGKLTVEDLTGGNFTITNGGVFGSLMSTPIINPPQSAILGMHAIKDRPMAVNGQVEILPMMYLALSYDHRLIDGRESVGFLVTIKELLEDPTRLLLDV

Variants of: B1
Conditions: Escherichia coli (strain K12), pH 7, structure 1W4H, whole UniProt chain shown
[1] = 10 °C, GdnHCl, CD, 3-[morpholino]propanesulfonic acid 50 mM, NaCl 200 mM
[2] = 10 °C, GdnHCl, Fluorescence, 3-[morpholino]propanesulfonic acid 50 mM, NaCl 200 mM
[3] = Thermal, CD, Potassium phosphate 50 mM, KCl 200 mM

Variant	ddG of mutation (higher = less stable) [1] [kcal/mol]	denaturant m value [1] [kcal/mol/M]	denaturant midpoint (higher = more stable) [1] [M]	unfolding free energy [1] [kcal/mol]	denaturant m value [2]	unfolding free energy [2] [kcal/mol]	Tm [3] [°C]	ddG of mutation (higher = less stable) [3] [kcal/mol]	unfolding enthalpy (van 't Hoff) [3] [kcal/mol]
MSSVDILVPDLPESVADATVATWHKKPGDAVVRDEVLVEIETDKVVLEVPASADGILDAVLEDEGTTVTSRQILGRLREGNSAGKETSAKSEEKASTPAQRQQASLEEQNNDALSPAIRRLLAEHNADASAIKGTGVGGRLTREDVEKHLAKAPAKESAPAAAAPAAQPALAARSEKRVPMTRLRKRVAERLLEAKNSTAMLTTFNEVNMKPIMDLRKQYGEAFEKRHGIRLGFMSFYVKAVVEALKRYPEVNASIDGDDVVYHNYFDVSMAVSTPRGLVTPVLRDVDTLGMADIEKKIKELAVKGRDGKLTVEDLTGGNFTITNGGVFGSLMSTPIINPPQSAILGMHAIKDRPMAVNGQVEILPMMYLALSYDHRLIDGRESVGFLVTIKELLEDPTRLLLDV [L127A]	1.37	0.63	1.95	1.23	0.41 kcal/mol/M and 0.18 kcal/mol/M	1.2	29.2	1.9	12
MSSVDILVPDLPESVADATVATWHKKPGDAVVRDEVLVEIETDKVVLEVPASADGILDAVLEDEGTTVTSRQILGRLREGNSAGKETSAKSEEKASTPAQRQQASLEEQNNDALSPAIRRLLAEHNLDGSAIKGTGVGGRLTREDVEKHLAKAPAKESAPAAAAPAAQPALAARSEKRVPMTRLRKRVAERLLEAKNSTAMLTTFNEVNMKPIMDLRKQYGEAFEKRHGIRLGFMSFYVKAVVEALKRYPEVNASIDGDDVVYHNYFDVSMAVSTPRGLVTPVLRDVDTLGMADIEKKIKELAVKGRDGKLTVEDLTGGNFTITNGGVFGSLMSTPIINPPQSAILGMHAIKDRPMAVNGQVEILPMMYLALSYDHRLIDGRESVGFLVTIKELLEDPTRLLLDV [A129G]	0.56	0.72	3.07	2.21	0.5 kcal/mol/M and 0.2 kcal/mol/M	2.22	46.5	0.58	22
MSSVDILVPDLPESVADATVATWHKKPGDAVVRDEVLVEIETDKVVLEVPASADGILDAVLEDEGTTVTSRQILGRLREGNSAGKETSAKSEEKASTPAQRQQASLEEQNNDALSPAIRRLLAEHNLDASGIKGTGVGGRLTREDVEKHLAKAPAKESAPAAAAPAAQPALAARSEKRVPMTRLRKRVAERLLEAKNSTAMLTTFNEVNMKPIMDLRKQYGEAFEKRHGIRLGFMSFYVKAVVEALKRYPEVNASIDGDDVVYHNYFDVSMAVSTPRGLVTPVLRDVDTLGMADIEKKIKELAVKGRDGKLTVEDLTGGNFTITNGGVFGSLMSTPIINPPQSAILGMHAIKDRPMAVNGQVEILPMMYLALSYDHRLIDGRESVGFLVTIKELLEDPTRLLLDV [A131G]	0.52	0.71	3.12	2.22	0.43 kcal/mol/M and 0.28 kcal/mol/M	2.44	48.5	0.43	21
